What all share (assay): ELISA
(In general: In an ELISA, binding on a coated surface is turned into a signal by an enzyme label.)

Assay [1] has as its target T1, SARS-CoV-2 Beta (B.1.351) variant prefusion stabilized spike trimer protein (UniProt P0DTC2 14-1213).
Assay [2] deals with T1, SARS-CoV-2 Beta (B.1.351) variant …. The source holds these as a separate data set.
Assay [3] addresses SARS-CoV-2 BA.2 spike trimer variant (SARS-CoV-2 Omicron BA.2, UniProt P0DTC2 16-1213).
The target in assay [4] is SARS-CoV-2 B.1.1.529 spike trimer variant (SARS-CoV-2 B.1.1.529 (Omicron), UniProt P0DTC2 16-1213).

B1: 4-L4-A (antibody, V domains shown)
VH: QAYLQQSGAELVRPGASVKMSCKASGYTFTSYTVHWVKQTPRQGLEWIGGIYPGNVDTSYNQNFKGKATLTVDKSSSTAYMQLSSLTSEDSAVYFCARDGYYAMDYWGQGTSVTVSS
VL: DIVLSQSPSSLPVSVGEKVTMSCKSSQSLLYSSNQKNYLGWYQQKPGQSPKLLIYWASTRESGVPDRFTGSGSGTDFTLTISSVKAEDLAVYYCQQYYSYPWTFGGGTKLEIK
Consider B1, for which, in assay [1], 5.99 nM corresponded to half-maximal inhibition (IC50).

B2: 2-B20-A (antibody, V domains shown)
VH: QIQLVQSGPELKKPGETVKISCKASGYTFTTYGMSWVKQAPGKGLKWMGWINTFSGLPTYADDFNGRFAFSLETSASTAYLQINNLKDEDTATYFCARVKVHDYDGDFYGMDYWGQGTSVTVSS
VL: DVVLTQTPLSLPVNIGDQASISCKSTKSLLNSDGFTYLDWYLQKPGQSPQLLIYLVSNRFSGVPDRFSGSGSGTDFTLKISRVEAEDLGVYYCFQSNYLPLTFGAGTKLELK
Regarding B2, in assay [2], the EC50 worked out at 0.23 nM.

B3: 6-C19-A (antibody, V domains shown)
VH: QIQLVQSGPELKKPGETVKISCKASGNTFTTAGMQWVQKMPGKGFKWIGWINTHSGEPKYAEDFKGRFAFSLETSASTAYLQISNLKNEDTATYFCARYGDYYYFDCWGQGTTLTVSS
VL: DIQMTQSPASLSASVGETVTITCRASGNIHNYLAWYQQKQGKSPQLLVYNAKTLADGVPSRFSGSGSGTQYSLKINSLQPEDFGSFYCQHFWTTPWSFGGGTKLEIK
B3: the midpoint of the response in assay [2], the EC50, lay at 1.53 nM.

B4: 6-C19-A-WT (antibody, V domains shown)
VH: EVQLQQSGPELVKPGASVKMSCKASGYTFTDYNIHWVKQSHGKSLEWIGYINPNNGGTDYNQKFQGKATLTVDKSSSTAYMELRSLTSEDSAVYYCARGGFYGNYGSYYGMDFWGQGTSVTVSS
VL: DIQMTQSPASLSASVGETVTITCRTSENIYSHLAWYQQTQGKSPHLLVYNAKTLAEGVPSRFSGSGSGTQFSLKINSLQPEDFGSYFCQHHYGIPPEFGGGTKLEIK
For the molecule B4, the EC50 in assay [3] and in assay [4] was 0.36 nM in each case.

B5: 8-N24-A (antibody, V domains shown)
VH: QVQLQQPGAELVKPGASVKVSCKASGYTFTSYWMHWVKQRPGQGLEWIGRIHPSDSDTNYYQKFKGKATLSVDKSSSTAYMQLSSLTSEDSAVYYCAIPLYSYDNSGGYYPMDYWGQGTSVTVSS
VL: DIVMTQSQKFMSTSVGDRVTITCKASQNVRTAVAWYQQKPGQSPKKLIYLASNRHTGVPDRFTGSGSGTDFTLAISNVQSEDLADYFCLQHWNYPFTFGSGTRLEIK
Turning to B5, the EC50 in assay [3] was 3.25 nM; in assay [4], 4.19 nM.

B6: 10-B11-A (antibody, V domains shown)
VH: QVQLQQPGAELVKPGASVKVSCKASGYTFTSYWMHWVKQRPGQGLEWIGRIHPSDSDTNYYQKFKGKATLSVDKSSSTAYMQLSSLTSEDSAVYYCAIPLYSYDNSGGYYPMDYWGQGTSVTVSS
VL: DIVMTQSQKFMSTSVGDRVTITCKASQNVRTAVAWYQQKPGQSPKKLIYLASNRHTGVPDRFTGSGSGTDFTLAISNVQSEDLADYFCLQHWNYPFTFGSGTRLEIK
Regarding B6, the EC50 in assay [3] was found to be 0.84 nM; in assay [4], 1.16 nM.

B7: 3-K11-A (antibody, V domains shown)
VH: EVQLQQSGPELVKPGASVKMSCKASGYTFTSYVMHWVKQKPGQGLEWIGYINPYNDGTEYNEKFKGKATLTSDKSSSTAYMELSSLTSEDSAVYHCAREAYRYFDVWGTGTTVTVSS
VL: DIQMTQSPASLSVSVGETVTITCRASENIYSNLAWYQQKQGKYPQLLVYGATNLADGVPSRFSGSGSGTQYFLKINSLQSEDFGSYYCQHFWGIPWTFGGGTKLEIK
Consider B7, for which the results for the 50% effective concentration (EC50) in assay [4] and in assay [2] were 20.6 nM and 2.87 nM, respectively.

B8: 4-A22-A (antibody, V domains shown)
VH: EVQLQQSGPELVKPGASVKMSCKASGYTFTSYVMHWVKQKPGQGLEWIGYINPYNDGTEYNEKFKGKATLTSDKSSSTAYMELSSLTSEDSAVYYCAREAYRYFDVWGTGTTVTVSS
VL: DIQMTQSPASLSVSVGETVTITCRASENIYSNLAWYQQKQGKSPQLLVYAATNLAEGVPSRFSGSGSGTQYSLKINSLQSEDFGSYYCQHFWGTPWTFGGGTKLEIK
As for B8, in assay [2], it took 5.97 nM to reach a half-maximal effect (EC50).

B9: 2-B16-B (antibody, V domains shown)
VH: EVQLQQSGAELVRPGSSVKMSCKTSGYTFTSYGINWVKQRPGQGLEWIGYIYIGNGYTAYNEKFKGKATLTSDTSSSTAYMQLSSLTSEDSAIYFCARDGTRDAMDYWGQGTSVTVSS
VL: DIQMTQSPASLSASVGETVTITCRASENIYSNLAWYQQKQGKSPQLLVYAATNLADGVPSRFSGSGSGTQFSLKINSLQPEDFGSYYCQHFYSSPWTFGGGTKLEIK
Turning to B9, the EC50 in assay [2] amounted to 0.27 nM.

B10: 6-L8-A (antibody, V domains shown)
VH: EVQLQQSVAELVRPGASVKLSCTPSGFNIKNTYMHWMKQRPEQGLEWIGRINPANDDTKYAPKFQDKATITADTSSNTAYLQLSSLTSEDTAIYYCVYDVRWYFDVWGTGTTVTVSS
VL: DVVMTQTPLSLPVSLGDQASISCRSSQGLVHSNGNTYLHWYLQKPGQSPKLLIYKVSNRFSGVPDRFSGSGSGTDFTLKISRVEAEDLGVYFCSQSTHVPPTFGAGTKLELK
For B10, the EC50 was determined as 20.6 nM in assay [3] and 64 nM in assay [4].

B11: 4-K16-A (antibody, V domains shown)
VH: QIQLVQSGPELKKPGETVKISCKASGYTFTTYGMSWVKQAPGKGLKWMGWMSTYSGVPTYADDFKGRFAFSLETSASTAYLQINNLKNEDTATYFCASGDVGYWGQGTTLTVSS
VL: DIVMTQSQKFMSTSVGDRVSVTCKASQNVGTNVAWYQQKPGQSPKALIYSASYRYSGVPDRFTGSGSGTDFTLTISTVQSEDLAEYFCQQYNIYPSTFGGGTKLEIK
Turning to B11, the EC50 in assay [3] was found to be 3.87 nM; in assay [4], 0.94 nM.

B12: 9-M12-A (antibody, V domains shown)
VH: EVQLVESGGDLVKPGGSLKLSCTASGFTFSSYGMSWVRQTPDKRLEWVTTISSGGGYTYVPDSVKGRFTISRDNAKNTLYLHMSSLKSEDTAMYFCARPLIPTMVEAFDYWGQGTSLTVSS
VL: SIVMTQTPKFLPVSAGDRVTMTCKASQSVGNNVAWYQQKPGQSPKLLIYYASNRYTGVPDRFTGSGSGADFTFTISSVQVEDLAVYFCQQHYSSPFTFGTGTKLEIK
Consider B12, for which a half-maximal effect in assay [2] (EC50) was put at 0.47 nM.

B13: 2-O15-A (antibody, V domains shown)
VH: QVQLQQSGAELVRPGASVKLSCKASGYTFTDCEMHWVKQTPVHGLEWIGVIDPETGDTAYNQKFKGKATLTADKSSSTAYMELRSLTSEDSAVYYCTRRRDYGNPYWYFDVWGAGTTVTVSS
VL: EIVLTQSPALMAASPGEKVTITCSVSSSISSSNLHWYQQKSGTSPKPWIYGTSNLASGVPVRFSGSGSGTSYSLTISSMEAEDAATYYCQQWTSYPYTFGSGTKLEIK
As to B13, the EC50 in assay [2] was found to be 0.59 nM.

B14: 9-G24-A (antibody, V domains shown)
VH: QVQLQQSGAELVRPGASVKLSCKASGYTFTDYEMHWVKQTPVHGLEWIGVIDPETGDTAYNQKFKDKATLTADKSSSTAYMELRSLTSEDSAVYYCARRRDYGNPYWYFDVWGAGTAVTVSS
VL: EIVLTQSPALMAASPGEKVTITCSASSSISSSNLHWYQQKSGTSPKPWIYGTSNLASGVPVRFSGSGSGTSYSLTISSMEAEDAATYVCQQWSNYPYTFGSGTKLEIK
For the molecule B14, the EC50 in assay [2] worked out at 0.56 nM.

B15: 2-G20-A (antibody, V domains shown)
VH: EVQLQQSGPELVKPGASVKMSCKASGYTFPSYVLHWVKQKPGQGLEWIGYIYPYNDGTNYNEKFKGKATLTSDKSSSTAYMELSSLTSEDSAVYYCARGDYGDSAWFPYWGQGTLVTVSA
VL: DIVLTQSPASLAVSLGQRATISCRASKSVSTSGYSYMHWYQQKPGQPPKLLIYLASNLKSGVPARFSGGGSGTDFTLNIHPVEEEDAATYYCQLSRELPWTFGGGTKLEIK
For B15, the midpoint of inhibition in assay [1], the IC50, lay at 18.6 nM.

B16: 6-N1-A (antibody, V domains shown)
VH: EVQLQQSGPELVKPGASVKISCKASGYTFTDYYMNWVQQSHGKSLEWIGDINPNNGGIRYNQNFKGKATLTVEKSSSTAYMELRSLTSEDSAVYYCARRQVFYDGYYDYAMDYWGQGTSVTVSS
VL: DIVLTQSPASLAVSLGQRATISCRASQSVSTSSYSYMHWYQQKPGQPPKLLIKYASNLESGVPARFSGSGSGTDFTLNIHPVEEEDTATYFCQHNWEIPPTFGGGTKLEIK
The molecule B16 gave an EC50 in assay [2] of 5.29 nM.

B17: 1-L10-A (antibody, V domains shown)
VH: EVKLEESGGGLVQPGGSMKLSCVASGFTFNNYWMNWVRQSPEKGLEWVAQMRLKSDNYATHYAESVKGRFTISRDDSKSSVYLQMNNLRAEDTGIYYCIEGYWTYWGQGTLVTVSA
VL: QIVLTQSPAIMSASLGERVTMTCTASSSVSSSYLHWYQQKPGSSPKLWIYSTSNLASGVPARFSGNGSGTSYSLTISSMEAEDAATYYCLQYHRSPPYTFGGGTKLEIK
Molecule B17 returned an IC50 in assay [1] of 10.8 nM.

B18: 10-J24-A (antibody, V domains shown)
VH: EVQLVESGGGLVKPGGSLKLSCAASGFTFSSYAMSWVRQNPAKRLEWVATISGGGGFTYYPDSVKGRFTISRDNAKNTLYLQMNSLRSEDTAMYYCARDEDGKHDYFDYWGQGTTLTVSS
VL: DIVMTQSHKFMSTSVGDRVSITCKASQDVGTAVAWYQQKPGQSPKLLIYWASTRHTGVPDRFTGSGSGTDFTLTISNVQSEDLADYFCQQYASYPLTFGGGTKLVIK
In assay [2], B18 gave an EC50 of 1.47 nM.

B19: 4-C22-A (antibody, V domains shown)
VH: EVQLVESGGDLVKPGGSLKLSCAASGFTFSSFGMSWVRQTPDKRLEWVATISSGGGFTYYPDSVEGRFTISRDNAKNTLYLQMSSLKSEDTAMYYCARRLYDYDWFAYWGQGTLVTVSA
VL: DIVMTQSHKIMSTSVGDRVSITCKASQDVVTAVAWYQKKPGQSPKLLIHWASTRHTGVPDRFTGSGSGTDFTLTISNVQSEDLADYFCQQYSSYPLTFGAGTKLELK
B19 had an EC50 in assay [2] of 0.53 nM.

B20: 2-P2-A (antibody, V domains shown)
VH: EVQLQQSGAELVRPGSSVKMSCKTSGYTFTSYGINWVKQRPGQGLEWIGYIYIGNGYTEYNEKFKGKATLTSDTSSSTAYMQLSSLTSEDSAIYFCARGGVDYWGQGTTLTVSS
VL: DVLMTQTPLSLPVSLGDQASISCRSSQSIVHSNGNTYLEWYLQKPGQSPKLLIYKVSNRFSGVPDRFSGSGSGTDFTLKISRVEAEDLGVYYCFQGSHVPYTFGGGTKLEIK
Consider B20, for which the EC50 is 0.5 nM in assay [3] and 0.58 nM in assay [4].

One may read the IC50 as the point on the concentration scale where inhibition reaches its midpoint. Read a low IC50 as greater potency in that assay. A word on the EC50: it is the concentration that produces a half-maximal response. Low values mean greater potency, high ones weaker potency.
